In series [1] the target is T1, His68 (UniProt position 68, KESTLHLVLRL). The conditions noted are these: Ubiquitin; form not further specified (literature value); cited from earlier work.
The target of series [2] is T1, His68. Nature of the series: NMR. The conditions noted are these: 23 °C; Not stated explicitly for Ub^WT; described as 'a similar pH titration' to that of pUb in citric acid-phosphate buffer; Free wild-type ubiquitin, folded.

Read-outs that look alike come from different tables or passages of the source.

As to “Ubiquitin (Ub^WT) (Homo sapiens (inferred; the article does not state the species of the ubiquitin))”, the pKa (in general, the negative logarithm of the acid dissociation constant) is 5.5 in the series with His68 [1] and 5.7 with His68 [2].

Source of the values: publication PMC5805711.
